The source of these data is publication PMC3290749 (Oncogene, 2011).

This experiment addresses IgB-1 (UniProt P00533 25-645). The experiment in a line: ELISA. A general note: An ELISA detects its analyte on a solid surface through an enzyme-linked reagent.

B1: heparin-binding EGF like growth factor (ligand, UniProt Q99075 63-148, looked up)
chain: DLQEADLDLLRVTLSSKPQALATPNKEEHGKRKKKGKGLGKKRDPCLRKYKDFCIHGECKYVKELRAPSCICHPGYHGERCHGLSL
B1: the binding result is reported as “binds”.
